T1: His6Sumo-MED25(407-680) (Arabidopsis, UniProt Q7XYY2 407-680)
T1 sequence (looked up): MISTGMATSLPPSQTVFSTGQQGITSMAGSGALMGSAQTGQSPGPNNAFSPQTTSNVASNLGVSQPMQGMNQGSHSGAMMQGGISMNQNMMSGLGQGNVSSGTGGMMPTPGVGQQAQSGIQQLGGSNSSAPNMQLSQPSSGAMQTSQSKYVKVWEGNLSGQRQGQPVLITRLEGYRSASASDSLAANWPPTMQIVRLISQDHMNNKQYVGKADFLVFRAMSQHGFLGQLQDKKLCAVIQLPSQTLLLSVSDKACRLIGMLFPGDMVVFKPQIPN

B1: biotin-MYC3(5-242) (domain or fragment, Arabidopsis, UniProt Q9FIP9 5-242, looked up)
chain: TSSINFLTSDDDASAAAMEAFIGTNHHSSLFPPPPQQPPQPQFNEDTLQQRLQALIESAGENWTYAIFWQISHDFDSSTGDNTVILGWGDGYYKGEEDKEKKKNNTNTAEQEHRKRVIRELNSLISGGIGVSDESNDEEVTDTEWFFLVSMTQSFVNGVGLPGESFLNSRVIWLSGSGALTGSGCERAGQGQIYGLKTMVCIATQNGVVELGSSEVISQSSDLMHKVNNLFNFNNGGG
modifications: biotin (site not stated)
B2: biotin-MYC3(44-238) (domain or fragment, Arabidopsis, UniProt Q9FIP9 44-238, looked up)
chain: QPQFNEDTLQQRLQALIESAGENWTYAIFWQISHDFDSSTGDNTVILGWGDGYYKGEEDKEKKKNNTNTAEQEHRKRVIRELNSLISGGIGVSDESNDEEVTDTEWFFLVSMTQSFVNGVGLPGESFLNSRVIWLSGSGALTGSGCERAGQGQIYGLKTMVCIATQNGVVELGSSEVISQSSDLMHKVNNLFNFN
modifications: biotin (site not stated)
B3: His6Sumo-MED25(540-680) (domain or fragment, Arabidopsis, UniProt Q7XYY2 540-680, looked up)
chain: QLSQPSSGAMQTSQSKYVKVWEGNLSGQRQGQPVLITRLEGYRSASASDSLAANWPPTMQIVRLISQDHMNNKQYVGKADFLVFRAMSQHGFLGQLQDKKLCAVIQLPSQTLLLSVSDKACRLIGMLFPGDMVVFKPQIPN

Common to all, as to test: AlphaScreen or HTRF
One assay has as its target T1, His6Sumo-MED25(407-680).
Assay [1] has as its target B2.
The assay “biotin-MYC3(5-242)” has as its target B1.
Assay [2] addresses B2. The source holds these as a separate data set.

Among the data in PMC4567411 (Nature, 2015) are binding result and IC50 values, retold here.

With B1, in the assay with His6Sumo-MED25(407-680), the binding result is reported as “binds”.
Turning to SVPQARKASLARFLEKRKERLM (peptide, UniProt Q8W4J8 218-239, looked up) [Jas22^JAZ9 peptide], the IC50 (commonly the midpoint of a concentration-inhibition curve) in the assay with biotin-MYC3(44-238) [1] was around 420 nM; in the assay with biotin-MYC3(5-242), around 490 nM.
As for B2, the binding result with His6Sumo-MED25(407-680) is recorded as “binds”.
As to B3, the binding result with biotin-MYC3(44-238) [2] is reported as “binds”.
